Laboratory results: PMC4066579 (Nature methods, 2009)
Read-outs that look alike come from different tables or passages of the source.

B1: EmrE-EFE(1–113), unmodified (free N-terminal methionine) (natural protein)
chain: MNPYIYLGGAILAEVIGTTLMKFSEGFTRLWPSVGTIICYCASFWLLAQTLAYIPTGIAYAIWSGVGIVLISLLSWGFFGQRLDLPAIIGMMLICAGVLIINLLSRSTPHEFE
B2: EmrE-EFE(1–113), N-terminally formylated (natural protein)
chain: B1 chain
modifications: formylation at an N-terminal methionine
B3: MexB (natural protein, Pseudomonas aeruginosa strain PAO1, UniProt P52002 1-1046, looked up)
chain: MSKFFIDRPIFAWVIALVIMLAGGLSILSLPVNQYPAIAPPAIAVQVSYPGASAETVQDTVVQVIEQQMNGIDNLRYISSESNSDGSMTITVTFEQGTDPDIAQVQVQNKLQLATPLLPQEVQRQGIRVTKAVKNFLMVVGVVSTDGSMTKEDLSNYIVSNIQDPLSRTKGVGDFQVFGSQYSMRIWLDPAKLNSYQLTPGDVSSAIQAQNVQISSGQLGGLPAVKGQQLNATIIGKTRLQTAEQFENILLKVNPDGSQVRLKDVADVGLGGQDYSINAQFNGSPASGIAIKLATGANALDTAKAIRQTIANLEPFMPQGMKVVYPYDTTPVVSASIHEVVKTLGEAILLVFLVMYLFLQNFRATLIPTIAVPVVLLGTFGVLAAFGFSINTLTMFGMVLAIGLLVDDAIVVVENVERVMAEEGLSPREAARKSMGQIQGALVGIAMVLSAVFLPMAFFGGSTGVIYRQFSITIVSAMALSVIVALILTPALCATMLKPIEKGDHGEHKGGFFGWFNRMFLSTTHGYERGVASILKHRAPYLLIYVVIVAGMIWMFTRIPTAFLPDEDQGVLFAQVQTPPGSSAERTQVVVDSMREYLLEKESSSVSSVFTVTGFNFAGRGQSSGMAFIMLKPWEERPGGENSVFELAKRAQMHFFSFKDAMVFAFAPPSVLELGNATGFDLFLQDQAGVGHEVLLQARNKFLMLAAQNPALQRVRPNGMSDEPQYKLEIDDEKASALGVSLADINSTVSIAWGSSYVNDFIDRGRVKRVYLQGRPDARMNPDDLSKWYVRNDKGEMVPFNAFATGKWEYGSPKLERYNGVPAMEILGEPAPGLSSGDAMAAVEEIVKQLPKGVGYSWTGLSYEERLSGSQAPALYALSLLVVFLCLAALYESWSIPFSVMLVVPLGVIGALLATSMRGLSNDVFFQVGLLTTIGLSAKNAILIVEFAKELHEQGKGIVEAAIEACRMRLRPIVMTSLAFILGVVPLAISTGAGSGSQHAIGTGVIGGMVTATVLAIFWVPLFYVAVSTLFKDEASKQQASVEKGQ
B4: MacB (natural protein, UniProt P75831 1-648, looked up)
chain: MTPLLELKDIRRSYPAGDEQVEVLKGISLDIYAGEMVAIVGASGSGKSTLMNILGCLDKATSGTYRVAGQDVATLDADALAQLRREHFGFIFQRYHLLSHLTAEQNVEVPAVYAGLERKQRLLRAQELLQRLGLEDRTEYYPAQLSGGQQQRVSIARALMNGGQVILADEPTGALDSHSGEEVMAILHQLRDRGHTVIIVTHDPQVAAQAERVIEIRDGEIVRNPPAIEKVNVTGGTEPVVNTVSGWRQFVSGFNEALTMAWRALAANKMRTLLTMLGIIIGIASVVSIVVVGDAAKQMVLADIRSIGTNTIDVYPGKDFGDDDPQYQQALKYDDLIAIQKQPWVASATPAVSQNLRLRYNNVDVAASANGVSGDYFNVYGMTFSEGNTFNQEQLNGRAQVVVLDSNTRRQLFPHKADVVGEVILVGNMPARVIGVAEEKQSMFGSSKVLRVWLPYSTMSGRVMGQSWLNSITVRVKEGFDSAEAEQQLTRLLSLRHGKKDFFTWNMDGVLKTVEKTTRTLQLFLTLVAVISLVVGGIGVMNIMLVSVTERTREIGIRMAVGARASDVLQQFLIEAVLVCLVGGALGITLSLLIAFTLQLFLPGWEIGFSPLALLLAFLCSTVTGILFGWLPARNAARLDPVDALARE

Legend:
[1] = target: the molecule itself; assay: native MS
[2] = target: the molecule itself; assay: native MS; remark: listed apart in the source

| Protein | stoichiometry N [1] | stoichiometry N [2] |
| --- | --- | --- |
| B1 | 2 | – |
| B2 | 2 | – |
| B3 | – | 3 |
| B4 | – | 2 |
